Bridge positions count the residues as written; N and C are the ends. Square brackets hold non-standard residues; d marks the D form. Ends that are not written are not given here. NMeL = CN[C@@H](CC(C)C)C(=O)O; Phg = N[C@H](C(=O)O)c1ccccc1; NMeV = CN[C@H](C(=O)O)C(C)C; Orn = NCCC[C@H](N)C(=O)O; ATU = not defined here; Aib = CC(C)(N)C(=O)O; Sar = CNCC(=O)O
B1: 3G3 conformational scan 27: CLG-aiB-LGKLC (peptide)
peptide: CLG[Aib]LGKLC
modifications: not fully specified (bridges); printed as CLG-aiB-LGKLC; cysteine pairing not given here
B2: 3G3 conformational scan 31: CLGVLGK-aiB-C (peptide)
peptide: CLGVLGK[Aib]C
modifications: not fully specified (bridges); printed as CLGVLGK-aiB-C; cysteine pairing not given here
B3: 3G3 conformational scan 26: CL-aiB-VLGKLC (peptide)
peptide: CL[Aib]VLGKLC
modifications: not fully specified (bridges); printed as CL-aiB-VLGKLC; cysteine pairing not given here
B4: 3G3 conformational scan 30: CLGVLG-aiB-LC (peptide)
peptide: CLGVLG[Aib]LC
modifications: not fully specified (bridges); printed as CLGVLG-aiB-LC; cysteine pairing not given here
B5: 3G3 conformational scan 20: CLG-pG-LGKLC (peptide)
peptide: CLG[Phg]LGKLC
modifications: not fully specified (bridges); printed as CLG-pG-LGKLC; cysteine pairing not given here
B6: 3G3 conformational scan 21: CLGV-pG-GKLC (peptide)
peptide: CLGV[Phg]GKLC
modifications: not fully specified (bridges); printed as CLGV-pG-GKLC; cysteine pairing not given here
B7: 3G3 conformational scan 23: CLGVLG-pG-LC (peptide)
peptide: CLGVLG[Phg]LC
modifications: not fully specified (bridges); printed as CLGVLG-pG-LC; cysteine pairing not given here
B8: 3G3 conformational scan 29: CLGVL-aiB-KLC (peptide)
peptide: CLGVL[Aib]KLC
modifications: not fully specified (bridges); printed as CLGVL-aiB-KLC; cysteine pairing not given here
B9: 3G3 conformational scan 24: CLGVLGK-pG-C (peptide)
peptide: CLGVLGK[Phg]C
modifications: not fully specified (bridges); printed as CLGVLGK-pG-C; cysteine pairing not given here
B10: 3G3 others 2: Y-ATU-… (peptide)
peptide: {Tyr-ATU}-CLGVLGKLC
modifications: not fully specified (bridges); printed as Y-ATU-CLGVLGKLC; cysteine pairing not given here; reading uncertain
B11: 3G3 conformational scan 25 (alpha Me AA): C-aiB-GVLGKLC (peptide)
peptide: C[Aib]GVLGKLC
modifications: not fully specified (bridges); printed as C-aiB-GVLGKLC; cysteine pairing not given here

biological target: ACA-6501 aPL antibody; assay: competitive ELISA I50; antibody not given, ACA-6501 serum on CL/β2-GPI assumed (Ex. 4B)

Row | IC50 [µg/mL] | Binder
1 | 240 | CLGVLGK[NMeL]C (not fully specified (bridges); cysteine pairing not given here) [3G3 N-Me amino acids 8: CLGVLGK-nL-C]
2 | 140 | CLGVLG[dL][dL]C (not fully specified (bridges); cysteine pairing not given here) [3G3 D amino acids 21: CLGVLG-dL-dL-C]
3 | 110 | B1
4 | 500 | CLGVLGKGC [3G3 Gly scan 5: …]
5 | 40 | CLGVLG[Orn]LC (not fully specified (bridges); cysteine pairing not given here) [3G3 basic amino acid 2: CLGVLG-Or-LC]
6 | 230 | CLGV[dL]GKLC (not fully specified (bridges); cysteine pairing not given here) [3G3 D amino acids 4: CLGV-dL-GKLC]
7 | 160 | CLGVLGRLC [3G3 basic amino acid 1: …]
8 | 40 | CLGVLAKLC [3G3 Ala scan 5: … (peptide 925)]
9 | 10 | CLGVLGKLC (disulfide 1-9 (inferred)) [LJP 690 …]
10 | > 470 | B2
11 | 80 | B3
12 | 70 | CL[Phg]VLGKLC (not fully specified (bridges); cysteine pairing not given here) [3G3 conformational scan 19: CL-pG-VLGKLC]
13 | 120 | [dP]CLGVLGKLC (not fully specified (bridges); cysteine pairing not given here) [3G3 D amino acids 1: dP-…]
14 | 180 | GPCLGVLGKLCPG [3G3 truncation 2: …]
15 | 460 | B4
16 | 70 | B5
17 | 35 | B6
18 | 60 | CIGVLGKLC [3G3 branched aliphatic 1: …]
19 | 220 | CLG[NMeV]LGKLC (not fully specified (bridges); cysteine pairing not given here) [3G3 N-Me amino acids 4: CLG-nV-LGKLC]
20 | 550 | CLGVL[Sar]KLC (not fully specified (bridges); cysteine pairing not given here) [3G3 N-Me amino acids 6: CLGVL-nG-KLC]
21 | 180 | CLGV[NMeL]GKLC (not fully specified (bridges); cysteine pairing not given here) [3G3 N-Me amino acids 5: CLGV-nL-GKLC]
22 | 420 | PCLGVLGKLCPG [3G3 truncation 3: …]
23 | 310 | CGGVLGKLC [3G3 Gly scan 1: …]
24 | 160 | CLGVLGPLC [3G3 conformational scan 16 (Pro scan): …]
25 | 130 | CVGVLGKLC [3G3 branched aliphatic 2: …]
26 | 360 | CLGVLGKAC [3G3 Ala scan 7: …]
27 | 140 | CLGVLGK[dL]C (not fully specified (bridges); cysteine pairing not given here) [3G3 D amino acids 6: CLGVLGK-dL-C]

Row | IC50 [µg/mL] | Binder
28 | 230 | B7
29 | 170 | CLAVLGKLC [3G3 Ala scan 2: …]
30 | 450 | AGPCLGVLGKLCG [3G3 truncation 5: … (as printed)]
31 | 110 | B8
32 | 150 | CLGVLG[dK][dL]C (not fully specified (bridges); cysteine pairing not given here) [3G3 D amino acids 18: CLGVLG-dK-dL-C]
33 | 80 | B9
34 | 300 | CLGVLGKLC (not fully specified; C-terminal ATU-Y as printed (ATU linker, then Tyr)) [3G3 others 1: …-ATU-Y]
35 | 170 | B10
36 | 80 | XLGVLGKLX (homocysteine (Hc) at positions 1 and 9; cyclic thioether) [HHTE, LJP 703 (cyclic thioether analog of 3G3, Hc-LGVLGKL-Hc)]
37 | 170 | CLGVLG[dK]LC (not fully specified (bridges); cysteine pairing not given here) [3G3 D amino acids 5: CLGVLG-dK-LC]
38 | 200 | CAGVLGKLC [3G3 Ala scan 1: …]
39 | 340 | CLPVLGKLC [3G3 conformational scan 12 (Pro scan): …]
40 | 350 | CLGVLPKLC [3G3 conformational scan 15 (Pro scan): …]
41 | 50 | CLG[dV][dL]GKLC (not fully specified (bridges); cysteine pairing not given here) [3G3 D amino acids 10: CLG-dV-dL-GKLC]
42 | 460 | CLGVLGKLCPG [3G3 truncation 4: …]
43 | 46 | XLGVLGKLC (homocysteine (Hc) at position 1; cyclic thioether) [HCTE, LJP 699 (cyclic thioether analog of 3G3, Hc-LGVLGKL-C)]
44 | 180 | CLGPLGKLC [3G3 conformational scan 13 (Pro scan): …]
45 | 370 | B11
46 | 160 | CPGVLGKLC [3G3 conformational scan 11 (Pro scan): …]
47 | 92 | CLGVLGKLX (homocysteine (Hc) at position 9; cyclic thioether) [CHTE, LJP 702 (cyclic thioether analog of 3G3, C-LGVLGKL-Hc)]
48 | 140 | CLGVL[dA]KLC (not fully specified (bridges); cysteine pairing not given here) [3G3 D amino acids 22: CLGVL-dA-KLC]
49 | 500 | CLGVLGKLC (not fully specified; "TGR resin" printed after the C-terminus) [3G3 others 3: … TGR resin]
50 | 130 | C[Phg]GVLGKLC (not fully specified (bridges); cysteine pairing not given here) [3G3 conformational scan 18: C-pG-GVLGKLC]
51 | 260 | CLGALGKLC [3G3 Ala scan 3: …]
52 | 110 | CLGVLGKLC (cyclic thioether in place of the disulfide) [CCTE, LJP 698 (cyclic thioether analog of 3G3, C-LGVLGKL-C)]
53 | 550 | CLGVLGKPC [3G3 conformational scan 17 (Pro scan): …]
54 | 70 | CL[Sar]VLGKLC (not fully specified (bridges); cysteine pairing not given here) [3G3 N-Me amino acids 3: CL-nG-VLGKLC]

From patent US6410775
